The results in this text go back to US20260001928A1 (CORTERIA PHARMACEUTICALS, priority 2022, published 2026).

In this assay the target is human corticotropin-releasing factor 2a (CRF2a receptor) (human), Q13324. Put plainly: cell-based or functional assay.

*1 amine or outer side, *2 acyl side, *3 side chain or, on linkers, in order; H or OH if unused. Where no end group is shown, it is not given here. Side-chain parts run from the residue outwards. [ ]: non-standard residue; d: D form. The star is where a group is joined. C20 diacid = O=C(O)CCCCCCCCCCCCCCCCCCC(=O)*; γGlu = O=C(O)[C@H](CCC(=O)[*:2])N[*:1]; NMeI = CC[C@H](C)[C@H](NC)C(=O)O; Pentanoyl = CCCCC(=O)*; AEEA = NCCOCCOCC(=O)O; Aib = CC(C)(N)C(=O)O

Sequence of human corticotropin-releasing factor 2a (CRF2a receptor) (human), Q13324 (Q13324 20-411): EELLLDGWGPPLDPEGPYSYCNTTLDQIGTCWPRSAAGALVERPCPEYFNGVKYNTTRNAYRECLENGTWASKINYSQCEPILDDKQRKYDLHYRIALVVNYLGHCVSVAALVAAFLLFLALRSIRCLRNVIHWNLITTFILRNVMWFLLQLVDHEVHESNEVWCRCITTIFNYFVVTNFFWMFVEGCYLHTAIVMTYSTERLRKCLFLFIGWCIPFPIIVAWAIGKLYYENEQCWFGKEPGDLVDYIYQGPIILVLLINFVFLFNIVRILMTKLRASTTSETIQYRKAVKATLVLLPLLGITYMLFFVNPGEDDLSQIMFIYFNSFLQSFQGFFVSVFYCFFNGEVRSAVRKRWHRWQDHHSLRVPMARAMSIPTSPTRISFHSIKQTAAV

B1: SEQ ID NO 234 (peptide)
peptide: [NMeI]VLSLD[dV]PIKLK([AEEA-γGlu-C20 diacid])KILLEQEKQK[Aib]QREQAETN[Aib]QILAQV-NH2
modifications: N-terminus assumed
SMILES: CC[C@H](C)[C@H](NC)C(=O)N[C@H](C(=O)N[C@@H](CC(C)C)C(=O)N[C@@H](CO)C(=O)N[C@@H](CC(C)C)C(=O)N[C@@H](CC(=O)O)C(=O)N[C@@H](C(=O)N1CCC[C@H]1C(=O)N[C@H](C(=O)N[C@@H](CCCCN)C(=O)N[C@@H](CC(C)C)C(=O)N[C@@H](CCCCNC(=O)COCCOCCNC(=O)CC[C@H](NC(=O)CCCCCCCCCCCCCCCCCCC(=O)O)C(=O)O)C(=O)N[C@@H](CCCCN)C(=O)N[C@H](C(=O)N[C@@H](CC(C)C)C(=O)N[C@@H](CC(C)C)C(=O)N[C@@H](CCC(=O)O)C(=O)N[C@@H](CCC(N)=O)C(=O)N[C@@H](CCC(=O)O)C(=O)N[C@@H](CCCCN)C(=O)N[C@@H](CCC(N)=O)C(=O)N[C@@H](CCCCN)C(=O)NC(C)(C)C(=O)N[C@@H](CCC(N)=O)C(=O)N[C@@H](CCCNC(=N)N)C(=O)N[C@@H](CCC(=O)O)C(=O)N[C@@H](CCC(N)=O)C(=O)N[C@@H](C)C(=O)N[C@@H](CCC(=O)O)C(=O)N[C@H](C(=O)N[C@@H](CC(N)=O)C(=O)NC(C)(C)C(=O)N[C@@H](CCC(N)=O)C(=O)N[C@H](C(=O)N[C@@H](CC(C)C)C(=O)N[C@@H](C)C(=O)N[C@@H](CCC(N)=O)C(=O)N[C@H](C(N)=O)C(C)C)[C@@H](C)CC)[C@@H](C)O)[C@@H](C)CC)[C@@H](C)CC)C(C)C)C(C)C
With B1, the EC50 [nM] (cAMP) came to 0.09 nM.

B2: SEQ ID NO 235 (peptide)
peptide: Pentanoyl-VLSLD[dV]PIKLK([AEEA-γGlu-C20 diacid])KILLEQEKQKKQREQAETN[Aib]QILAQV-NH2
SMILES: CCCCC(=O)N[C@H](C(=O)N[C@@H](CC(C)C)C(=O)N[C@@H](CO)C(=O)N[C@@H](CC(C)C)C(=O)N[C@@H](CC(=O)O)C(=O)N[C@@H](C(=O)N1CCC[C@H]1C(=O)N[C@H](C(=O)N[C@@H](CCCCN)C(=O)N[C@@H](CC(C)C)C(=O)N[C@@H](CCCCNC(=O)COCCOCCNC(=O)CC[C@H](NC(=O)CCCCCCCCCCCCCCCCCCC(=O)O)C(=O)O)C(=O)N[C@@H](CCCCN)C(=O)N[C@H](C(=O)N[C@@H](CC(C)C)C(=O)N[C@@H](CC(C)C)C(=O)N[C@@H](CCC(=O)O)C(=O)N[C@@H](CCC(N)=O)C(=O)N[C@@H](CCC(=O)O)C(=O)N[C@@H](CCCCN)C(=O)N[C@@H](CCC(N)=O)C(=O)N[C@@H](CCCCN)C(=O)N[C@@H](CCCCN)C(=O)N[C@@H](CCC(N)=O)C(=O)N[C@@H](CCCNC(=N)N)C(=O)N[C@@H](CCC(=O)O)C(=O)N[C@@H](CCC(N)=O)C(=O)N[C@@H](C)C(=O)N[C@@H](CCC(=O)O)C(=O)N[C@H](C(=O)N[C@@H](CC(N)=O)C(=O)NC(C)(C)C(=O)N[C@@H](CCC(N)=O)C(=O)N[C@H](C(=O)N[C@@H](CC(C)C)C(=O)N[C@@H](C)C(=O)N[C@@H](CCC(N)=O)C(=O)N[C@H](C(N)=O)C(C)C)[C@@H](C)CC)[C@@H](C)O)[C@@H](C)CC)[C@@H](C)CC)C(C)C)C(C)C
B2 had an EC50 [nM] (cAMP) of 0.16 nM.
